Test results taken from paper PMC3088358.

What was measured:
[1] = molecular target: Xenopus Crescent-Flag (Xenopus laevis); test: SPR
[2] = molecular target: recombinant human BMP1 protein (human) (UniProt P13497); test: enzyme inhibition kinetics

Substance	Kd [1]	Ki [2]
recombinant human BMP1 protein (from UniProt P13497 23-986) (enzyme)	11 nM	
Xenopus Crescent-Flag (natural protein)		59 nM
